The results in this text go back to patent publication US20100041597A1, “PEPTIDES TARGETED TO PROTEIN KINASE C ISOFORMS AND USES THEREOF” (priority 2005, published 2010).

For test [1], the target named is PKC-βII (purified isoform) (Homo sapiens (Human)) (UniProt P05771). Kind of test: competitive ELISA on purified PKC-βII vs anti-PKC-βII Ab; PRE 50 µM.
Test [2] shares this target. Kind of test: competitive ELISA on purified PKC-βII vs anti-PKC-βII Ab; PRE 100 µM. On the technique in general: ELISA stands for enzyme-linked immunosorbent assay.
The target is the same in test [3]. In words: competitive ELISA on purified PKC-βII vs anti-PKC-βII Ab; PRE 200 µM.
Test [4] has as its target PKC-βI (purified isoform) (Homo sapiens (Human)) (UniProt P05771). Kind of test: competitive ELISA on purified PKC-βI vs anti-PKC-βI Ab; PRE 100 µM.
Test [5] has the same target. Kind of test: competitive ELISA on purified PKC-βI vs anti-PKC-βI Ab; PRE 50 µM.
For test [6] the target is unchanged. Kind of test: competitive ELISA on purified PKC-βI vs anti-PKC-βI Ab; PRE 200 µM.
Test [7] has as its target PKC-βI (purified isoform) (Homo sapiens (Human)), P05771. Kind of test: competitive ELISA on purified PKC-βI vs anti-PKC-βI Ab; PRE 100 µM. To be noted: remark: other sources report otherwise.
For test [8] the target is unchanged. In words: competitive ELISA on purified PKC-βI vs anti-PKC-βI Ab; PRE 50 µM. The note with it: remark: other sources report otherwise.
The target is the same in test [9]. Kind of test: competitive ELISA on purified PKC-βI vs anti-PKC-βI Ab; PRE 200 µM. The note with it: remark: other sources report otherwise.
The target of test [10] is PKC-δ (purified isoform) (Homo sapiens (Human)) (UniProt Q05655). Kind of test: competitive ELISA on purified PKC-δ vs anti-PKC-δ Ab; PRE 50 µM.
Sequence of PKC-δ (purified isoform) (Homo sapiens (Human)) (Q05655 whole entry, stated change not applied, canonical isoform): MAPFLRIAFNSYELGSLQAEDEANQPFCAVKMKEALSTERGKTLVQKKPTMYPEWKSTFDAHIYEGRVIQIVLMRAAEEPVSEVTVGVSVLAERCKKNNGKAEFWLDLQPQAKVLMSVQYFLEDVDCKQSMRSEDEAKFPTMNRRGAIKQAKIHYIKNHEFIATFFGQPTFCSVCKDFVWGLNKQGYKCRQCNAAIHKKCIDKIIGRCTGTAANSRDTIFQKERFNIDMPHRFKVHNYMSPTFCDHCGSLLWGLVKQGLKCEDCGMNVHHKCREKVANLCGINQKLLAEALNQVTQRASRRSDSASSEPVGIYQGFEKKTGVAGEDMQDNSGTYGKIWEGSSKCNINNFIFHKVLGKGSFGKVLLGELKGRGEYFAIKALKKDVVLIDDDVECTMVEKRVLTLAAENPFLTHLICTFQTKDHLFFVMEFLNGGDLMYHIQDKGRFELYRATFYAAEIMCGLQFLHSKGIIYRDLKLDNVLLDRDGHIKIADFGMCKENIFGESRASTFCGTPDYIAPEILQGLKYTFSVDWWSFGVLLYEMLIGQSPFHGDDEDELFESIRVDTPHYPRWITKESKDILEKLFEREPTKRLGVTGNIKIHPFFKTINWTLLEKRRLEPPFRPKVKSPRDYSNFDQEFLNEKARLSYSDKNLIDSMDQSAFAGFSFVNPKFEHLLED
For test [11] the target is unchanged. Kind of test: competitive ELISA on purified PKC-δ vs anti-PKC-δ Ab; PRE 100 µM.
The target is the same in test [12]. Kind of test: competitive ELISA on purified PKC-δ vs anti-PKC-δ Ab; PRE 200 µM.
In test [13] the target is PKC-ε (purified isoform) (Homo sapiens (Human)) (UniProt Q02156). Kind of test: competitive ELISA on purified PKC-ε vs anti-PKC-ε Ab; PRE 100 µM.
Sequence of PKC-ε (purified isoform) (Homo sapiens (Human)) (Q02156 whole entry, canonical isoform): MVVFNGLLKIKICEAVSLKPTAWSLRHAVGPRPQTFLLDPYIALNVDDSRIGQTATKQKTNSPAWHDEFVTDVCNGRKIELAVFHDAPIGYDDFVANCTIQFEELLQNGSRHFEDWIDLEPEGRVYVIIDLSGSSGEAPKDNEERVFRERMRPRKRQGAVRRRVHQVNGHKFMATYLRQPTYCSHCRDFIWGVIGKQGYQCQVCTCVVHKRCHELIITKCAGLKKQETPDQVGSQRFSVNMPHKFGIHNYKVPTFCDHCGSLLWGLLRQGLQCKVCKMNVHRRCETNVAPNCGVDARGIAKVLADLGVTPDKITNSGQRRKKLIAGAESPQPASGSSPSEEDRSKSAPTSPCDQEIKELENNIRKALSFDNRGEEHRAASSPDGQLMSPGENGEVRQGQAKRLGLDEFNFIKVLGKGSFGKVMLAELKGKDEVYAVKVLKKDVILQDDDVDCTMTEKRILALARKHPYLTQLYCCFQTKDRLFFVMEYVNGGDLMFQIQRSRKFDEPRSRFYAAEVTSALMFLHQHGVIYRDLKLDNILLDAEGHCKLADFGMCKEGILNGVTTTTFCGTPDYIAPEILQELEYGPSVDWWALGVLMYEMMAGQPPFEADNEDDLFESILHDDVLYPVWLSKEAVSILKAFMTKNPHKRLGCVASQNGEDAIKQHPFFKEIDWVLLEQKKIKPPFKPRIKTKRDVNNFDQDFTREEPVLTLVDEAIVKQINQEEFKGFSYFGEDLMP
Test [14] has the same target. In words: competitive ELISA on purified PKC-ε vs anti-PKC-ε Ab; PRE 200 µM.
The target is the same in test [15]. In words: competitive ELISA on purified PKC-ε vs anti-PKC-ε Ab; PRE 50 µM.

Sequence of PKC-βI (purified isoform) (Homo sapiens (Human)) (P05771 2-671 limits assumed): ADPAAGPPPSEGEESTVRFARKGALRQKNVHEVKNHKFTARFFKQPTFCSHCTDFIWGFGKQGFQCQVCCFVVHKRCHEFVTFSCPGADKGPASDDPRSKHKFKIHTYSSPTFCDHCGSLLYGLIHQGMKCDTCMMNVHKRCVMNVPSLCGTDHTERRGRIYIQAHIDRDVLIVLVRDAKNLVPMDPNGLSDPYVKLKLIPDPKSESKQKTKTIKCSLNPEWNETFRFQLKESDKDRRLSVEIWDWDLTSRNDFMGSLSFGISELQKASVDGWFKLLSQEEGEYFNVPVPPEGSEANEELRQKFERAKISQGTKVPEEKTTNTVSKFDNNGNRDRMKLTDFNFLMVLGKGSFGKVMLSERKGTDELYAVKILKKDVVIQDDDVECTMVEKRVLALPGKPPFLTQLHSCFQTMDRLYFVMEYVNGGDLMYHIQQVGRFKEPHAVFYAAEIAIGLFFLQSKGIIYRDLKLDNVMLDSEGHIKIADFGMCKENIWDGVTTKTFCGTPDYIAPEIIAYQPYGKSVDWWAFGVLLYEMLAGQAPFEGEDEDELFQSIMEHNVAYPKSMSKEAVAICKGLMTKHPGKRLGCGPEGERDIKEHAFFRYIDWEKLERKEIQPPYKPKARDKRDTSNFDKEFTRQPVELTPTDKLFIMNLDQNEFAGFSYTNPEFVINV
Sequence of PKC-βI (purified isoform) (Homo sapiens (Human)), P05771 (P05771 2-671 limits assumed): as above
Sequence of PKC-βII (purified isoform) (Homo sapiens (Human)) (P05771 other isoform, or with tags, fused parts or gaps limits assumed): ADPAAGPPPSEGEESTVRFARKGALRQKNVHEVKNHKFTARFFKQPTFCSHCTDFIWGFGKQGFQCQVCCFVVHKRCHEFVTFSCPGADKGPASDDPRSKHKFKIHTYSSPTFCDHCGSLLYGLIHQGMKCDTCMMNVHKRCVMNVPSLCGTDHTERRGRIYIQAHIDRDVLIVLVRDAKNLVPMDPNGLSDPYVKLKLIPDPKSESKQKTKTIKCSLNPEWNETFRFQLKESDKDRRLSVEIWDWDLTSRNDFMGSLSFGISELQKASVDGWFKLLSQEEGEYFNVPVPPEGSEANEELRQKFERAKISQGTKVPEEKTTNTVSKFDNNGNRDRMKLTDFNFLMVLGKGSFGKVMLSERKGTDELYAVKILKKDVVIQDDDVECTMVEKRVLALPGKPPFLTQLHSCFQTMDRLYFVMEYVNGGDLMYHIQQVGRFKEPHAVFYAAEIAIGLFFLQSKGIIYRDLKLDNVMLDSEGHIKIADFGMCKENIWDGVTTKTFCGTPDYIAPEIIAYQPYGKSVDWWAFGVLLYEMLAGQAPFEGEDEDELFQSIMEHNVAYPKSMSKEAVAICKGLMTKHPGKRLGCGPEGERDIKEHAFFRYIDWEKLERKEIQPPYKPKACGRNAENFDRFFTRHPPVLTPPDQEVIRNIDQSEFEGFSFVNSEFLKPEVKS

Regarding Ac-ISIGILQNADK-NH2 [PRE 7], the figures for the binding capacity (%) in [1], in [2] and in [3] were 5.42%, 11.1% and 2.59%, respectively.

In the case of Ac-RDAQNLIGISI-NH2 [PRE 11], the binding capacity (%) in [4] is 14.2%; in test [5] it was 9.86%; in test [6], 12.5%; in test [1], 7.14%; in test [2], 11%; in test [3], 6.4%.

With ILEDKGGDAQNLIGISI [PRE 8], the binding capacity (%) in [7], in [8] and in [9] was 0% each time.

As for Ac-AKGIQEVKGGKDAQNLIGISI-NH2 [PRE 5], the binding capacity (%) in [4], in test [5] and in [6] was 0% throughout.

For Ac-ISIGILNQADK-NH2 [PRE 10], the binding capacity (%) in [4] amounted to 4.35%; in test [5], 3.77%; in [6], 0%; in test [10] it was 0%; in test [11] it was 0%; in test [12], 9.47%.

On to RRKKGGKDFVVKR [PRE 1], for which the binding capacity (%) turned out to be 5.47% in test [13], 0.83% in test [14] and 19.8% in [15].
